Source: publication PMC6101539 (Nucleic Acids Research, 2018)
Like-named read-outs stand apart in the source and are kept apart here.

T1: RarA;SsbA (Bacillus subtilis;Bacillus subtilis, UniProt O34528;P37455 1-421;1-172, |)
T1 sequence 1: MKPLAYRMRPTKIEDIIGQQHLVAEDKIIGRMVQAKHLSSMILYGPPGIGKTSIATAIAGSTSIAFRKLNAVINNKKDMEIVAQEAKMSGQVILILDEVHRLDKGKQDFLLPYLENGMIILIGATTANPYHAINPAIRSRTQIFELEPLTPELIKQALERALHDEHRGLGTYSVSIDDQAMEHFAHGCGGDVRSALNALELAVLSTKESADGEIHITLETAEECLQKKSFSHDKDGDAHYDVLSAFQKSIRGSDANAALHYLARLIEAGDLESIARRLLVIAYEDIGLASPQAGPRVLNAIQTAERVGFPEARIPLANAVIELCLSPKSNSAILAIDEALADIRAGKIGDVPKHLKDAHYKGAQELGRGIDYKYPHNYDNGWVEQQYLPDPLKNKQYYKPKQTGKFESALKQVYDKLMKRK
T1 sequence 2: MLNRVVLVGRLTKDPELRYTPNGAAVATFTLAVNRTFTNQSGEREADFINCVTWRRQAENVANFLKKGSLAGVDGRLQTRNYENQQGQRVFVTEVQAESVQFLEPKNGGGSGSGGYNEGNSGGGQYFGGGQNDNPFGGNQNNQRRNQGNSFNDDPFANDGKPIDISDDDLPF

T2: RarA K51A;SsbA (Bacillus subtilis;Bacillus subtilis, UniProt O34528;P37455 1-421;1-172, K51A|)
T2 sequence 1: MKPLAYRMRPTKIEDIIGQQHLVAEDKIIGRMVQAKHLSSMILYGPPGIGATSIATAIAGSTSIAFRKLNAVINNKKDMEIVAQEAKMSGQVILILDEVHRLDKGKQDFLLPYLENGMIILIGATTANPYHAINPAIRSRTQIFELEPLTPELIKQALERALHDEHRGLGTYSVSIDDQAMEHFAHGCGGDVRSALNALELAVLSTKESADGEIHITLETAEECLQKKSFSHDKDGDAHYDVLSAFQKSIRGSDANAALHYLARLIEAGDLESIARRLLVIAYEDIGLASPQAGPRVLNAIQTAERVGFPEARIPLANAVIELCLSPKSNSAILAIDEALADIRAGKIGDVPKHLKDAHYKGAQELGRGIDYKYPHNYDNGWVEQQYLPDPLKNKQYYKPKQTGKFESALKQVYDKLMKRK
T2 sequence 2: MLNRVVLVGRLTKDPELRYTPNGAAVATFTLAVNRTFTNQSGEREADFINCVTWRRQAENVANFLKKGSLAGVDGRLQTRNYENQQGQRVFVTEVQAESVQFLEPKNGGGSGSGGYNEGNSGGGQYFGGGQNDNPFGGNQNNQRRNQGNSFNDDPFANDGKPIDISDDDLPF

T3: RarA (Bacillus subtilis, UniProt O34528 1-421)
T3 sequence: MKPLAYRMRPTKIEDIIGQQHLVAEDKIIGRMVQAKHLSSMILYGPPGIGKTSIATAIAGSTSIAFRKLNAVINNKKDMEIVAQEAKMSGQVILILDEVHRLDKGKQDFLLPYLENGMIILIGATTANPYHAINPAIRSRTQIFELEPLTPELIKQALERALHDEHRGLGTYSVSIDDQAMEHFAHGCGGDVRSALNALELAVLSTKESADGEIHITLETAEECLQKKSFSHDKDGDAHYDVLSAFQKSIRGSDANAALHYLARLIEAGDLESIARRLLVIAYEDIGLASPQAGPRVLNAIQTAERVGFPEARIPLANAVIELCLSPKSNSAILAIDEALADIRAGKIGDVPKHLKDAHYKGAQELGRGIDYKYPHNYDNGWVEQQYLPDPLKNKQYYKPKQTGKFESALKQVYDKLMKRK

T4: SsbB (Bacillus subtilis, UniProt C0SPB6 1-113)
T4 sequence: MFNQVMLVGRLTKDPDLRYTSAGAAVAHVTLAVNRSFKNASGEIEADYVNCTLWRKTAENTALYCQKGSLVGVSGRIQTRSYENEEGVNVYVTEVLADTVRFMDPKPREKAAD

T5: RarA;SsbBA chimera (SsbB*) (Bacillus subtilis;Bacillus subtilis, UniProt O34528;C0SPB6 1-421;1-113+P37455:164-172, |internal_change)
T5 sequence 1: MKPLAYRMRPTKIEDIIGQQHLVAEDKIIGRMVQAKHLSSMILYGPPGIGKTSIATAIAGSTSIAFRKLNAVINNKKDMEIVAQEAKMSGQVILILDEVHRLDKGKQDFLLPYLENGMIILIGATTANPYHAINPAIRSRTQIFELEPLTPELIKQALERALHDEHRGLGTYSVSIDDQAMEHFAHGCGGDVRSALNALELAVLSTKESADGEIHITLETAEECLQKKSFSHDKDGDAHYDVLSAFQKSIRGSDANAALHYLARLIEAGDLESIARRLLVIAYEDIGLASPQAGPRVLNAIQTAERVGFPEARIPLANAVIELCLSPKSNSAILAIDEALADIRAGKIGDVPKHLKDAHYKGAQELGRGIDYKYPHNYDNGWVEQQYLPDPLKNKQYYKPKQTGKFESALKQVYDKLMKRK
T5 sequence 2: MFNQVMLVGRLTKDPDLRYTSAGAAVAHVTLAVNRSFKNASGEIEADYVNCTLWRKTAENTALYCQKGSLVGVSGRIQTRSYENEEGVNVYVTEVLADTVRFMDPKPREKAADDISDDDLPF

T6: SsbA (Bacillus subtilis, UniProt P37455 1-172)
T6 sequence: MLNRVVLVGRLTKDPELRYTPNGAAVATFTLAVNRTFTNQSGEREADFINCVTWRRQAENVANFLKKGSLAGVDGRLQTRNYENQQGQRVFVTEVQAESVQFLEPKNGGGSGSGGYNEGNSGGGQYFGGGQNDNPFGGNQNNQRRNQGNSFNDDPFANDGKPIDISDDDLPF

T7: PriA (Bacillus subtilis, UniProt P94461 1-805)
T7 sequence: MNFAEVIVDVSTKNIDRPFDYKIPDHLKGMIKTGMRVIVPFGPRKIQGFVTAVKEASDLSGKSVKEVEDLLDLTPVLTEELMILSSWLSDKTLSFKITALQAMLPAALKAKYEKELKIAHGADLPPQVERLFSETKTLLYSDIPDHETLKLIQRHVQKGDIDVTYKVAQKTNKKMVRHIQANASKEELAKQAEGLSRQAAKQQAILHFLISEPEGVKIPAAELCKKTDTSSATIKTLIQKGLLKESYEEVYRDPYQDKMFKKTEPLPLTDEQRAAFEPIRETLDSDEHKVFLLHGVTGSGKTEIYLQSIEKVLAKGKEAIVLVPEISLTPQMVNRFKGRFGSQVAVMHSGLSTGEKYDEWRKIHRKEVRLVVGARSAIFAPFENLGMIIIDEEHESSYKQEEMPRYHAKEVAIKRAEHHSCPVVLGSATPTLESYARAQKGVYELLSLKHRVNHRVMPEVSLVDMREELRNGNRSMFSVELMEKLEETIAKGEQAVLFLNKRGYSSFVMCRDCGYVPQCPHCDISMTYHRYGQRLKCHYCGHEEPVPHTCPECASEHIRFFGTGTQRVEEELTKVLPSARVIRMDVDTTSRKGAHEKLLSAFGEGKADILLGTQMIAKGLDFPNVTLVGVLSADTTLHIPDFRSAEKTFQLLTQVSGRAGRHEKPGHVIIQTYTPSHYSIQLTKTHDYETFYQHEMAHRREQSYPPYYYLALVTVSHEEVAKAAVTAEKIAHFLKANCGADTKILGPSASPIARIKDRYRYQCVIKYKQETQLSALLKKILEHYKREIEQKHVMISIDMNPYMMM

T8: RarA;PriA (Bacillus subtilis;Bacillus subtilis, UniProt O34528;P94461 1-421;1-805, |)
T8 sequence 1: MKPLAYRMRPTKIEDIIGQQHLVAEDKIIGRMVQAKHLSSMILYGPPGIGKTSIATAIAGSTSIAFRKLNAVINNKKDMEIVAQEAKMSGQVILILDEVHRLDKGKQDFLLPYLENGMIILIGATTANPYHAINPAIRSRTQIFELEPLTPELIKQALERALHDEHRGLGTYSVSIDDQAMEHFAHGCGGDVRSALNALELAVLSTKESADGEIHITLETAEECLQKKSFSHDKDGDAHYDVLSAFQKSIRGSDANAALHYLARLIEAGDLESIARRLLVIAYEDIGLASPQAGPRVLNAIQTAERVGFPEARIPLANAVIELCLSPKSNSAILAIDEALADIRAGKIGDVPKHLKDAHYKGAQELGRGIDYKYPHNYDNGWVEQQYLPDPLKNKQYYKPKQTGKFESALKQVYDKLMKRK
T8 sequence 2: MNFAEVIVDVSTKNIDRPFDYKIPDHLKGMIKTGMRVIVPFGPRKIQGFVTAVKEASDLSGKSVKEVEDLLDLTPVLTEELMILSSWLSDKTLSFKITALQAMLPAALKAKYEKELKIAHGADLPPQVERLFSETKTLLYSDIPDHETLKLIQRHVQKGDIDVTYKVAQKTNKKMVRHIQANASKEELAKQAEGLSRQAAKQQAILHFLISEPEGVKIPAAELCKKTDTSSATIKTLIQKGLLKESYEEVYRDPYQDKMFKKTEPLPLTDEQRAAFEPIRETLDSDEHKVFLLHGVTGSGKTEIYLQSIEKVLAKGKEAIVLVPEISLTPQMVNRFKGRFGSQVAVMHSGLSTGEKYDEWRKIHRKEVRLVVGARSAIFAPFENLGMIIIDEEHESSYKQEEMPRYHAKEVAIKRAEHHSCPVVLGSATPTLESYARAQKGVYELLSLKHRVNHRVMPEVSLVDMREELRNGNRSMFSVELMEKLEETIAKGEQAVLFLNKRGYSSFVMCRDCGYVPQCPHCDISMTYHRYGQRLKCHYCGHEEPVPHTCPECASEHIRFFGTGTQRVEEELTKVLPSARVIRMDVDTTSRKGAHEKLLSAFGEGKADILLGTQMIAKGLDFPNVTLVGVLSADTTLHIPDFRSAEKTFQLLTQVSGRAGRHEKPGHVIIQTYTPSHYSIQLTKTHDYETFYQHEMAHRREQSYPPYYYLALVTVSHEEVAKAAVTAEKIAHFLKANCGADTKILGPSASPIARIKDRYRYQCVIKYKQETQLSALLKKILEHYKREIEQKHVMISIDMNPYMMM


Assays:
Assay in all cases: EMSA
[1] = biological target: T1, RarA;SsbA
[2] = biological target: T2, RarA K51A;SsbA
[3] = biological target: T3, RarA
[4] = biological target: T4, SsbB
[5] = biological target: T5, RarA;SsbBA chimera (SsbB*)
[6] = biological target: T6, SsbA
[7] = biological target: T7, PriA
[8] = biological target: T8, RarA;PriA
[9] = biological target: T6, SsbA; remark: listed apart in the source

Row | Binder | binding result [1] | binding result [2] | Kd [3] [nM] | Kd [4] [nM] | binding result [5] | binding result [6] | Kd [7] [nM] | binding result [8] | binding result [9]
1 | 91-nt ssDNA (F1) (ssDNA) DNA: TATAAAAAAAGCCAAGCTTGCATGCCTGCAGGTCGACTCTAGAGGATCCCCGGGTACCGAGCTCGAATTCACTGGCCGTCGTTTTACAACG | binds | binds | ~12 | ~6 | binds |  |  |  | 
2 | replicated fork (F1/F2/F3) (dsDNA) DNA 1: TATAAAAAAAGCCAAGCTTGCATGCCTGCAGGTCGACTCTAGAGGATCCCCGGGTACCGAGCTCGAATTCACTGGCCGTCGTTTTACAACG DNA 2: AATTCGTTGTAAAACGACGGCCAGTGAATTCGAGCTCGGTACCCGCCAGCCACAGTCAGACACACACACACTACACACAAAAAAAAAAA DNA 3: TTTTTTTTTTTGTGTGTAGTGTGTGTGTGTCTGACTGTGGCTGG | binds |  | ~19 |  |  | binds | ~3 | binds | 
3 | fork DNA (F1/F2) (dsDNA) DNA 1: TATAAAAAAAGCCAAGCTTGCATGCCTGCAGGTCGACTCTAGAGGATCCCCGGGTACCGAGCTCGAATTCACTGGCCGTCGTTTTACAACG DNA 2: AATTCGTTGTAAAACGACGGCCAGTGAATTCGAGCTCGGTACCCGCCAGCCACAGTCAGACACACACACACTACACACAAAAAAAAAAA | binds |  | ~12 |  |  |  |  |  | binds
